What is called Kd is a measure of binding affinity in units of concentration.

Like-named read-outs stand apart in the source and are kept apart here. A value given as a limit tells only on which side of the number the result lay.

Experiment [1] has as its target hCD32a-H131 (human) (UniProt P12318).
Experiment [2] deals with hCD16a-F158 (human) (UniProt P08637).
Experiment [3] has as its target hCD32a-H131 (human) (UniProt P12318). This is another data set of the same source.
Experiment [4] concerns the target hCD16a-F158 (human) (UniProt P08637). This is another data set of the same source.

hCD32a-H131 (human), sequence (P12318 34-217): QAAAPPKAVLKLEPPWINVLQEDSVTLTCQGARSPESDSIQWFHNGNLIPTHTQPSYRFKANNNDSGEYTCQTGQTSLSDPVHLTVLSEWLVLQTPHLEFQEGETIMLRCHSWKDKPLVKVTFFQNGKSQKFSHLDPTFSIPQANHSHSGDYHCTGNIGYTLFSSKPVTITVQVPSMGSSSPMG
hCD16a-F158 (human), sequence (P08637 17-208): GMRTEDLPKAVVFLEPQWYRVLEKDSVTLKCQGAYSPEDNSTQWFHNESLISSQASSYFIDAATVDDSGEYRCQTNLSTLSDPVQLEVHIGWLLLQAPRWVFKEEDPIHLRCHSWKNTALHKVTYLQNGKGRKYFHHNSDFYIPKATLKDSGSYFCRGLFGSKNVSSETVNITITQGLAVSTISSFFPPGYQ

Consider IgG1f, for which the dissociation constant (Kd) with hCD32a-H131 (human) [1] was determined as 530 µM; in the experiment with hCD16a-F158 (human) [2], 200 µM.
With IgG1f-S267E, the Kd in the experiment with hCD32a-H131 (human) [3] was 650 µM; with hCD16a-F158 (human) [4], greater than 5000 µM.

For the origin of these results see patent US20200030425.
